The source of these data is paper PMC9531181.

The target in this experiment is covalently linked hexamer of ClpX-ΔN with a single biotinylation site (ClpX6B). The experiment can be described thus: single-molecule TIRF microscopy (dwell time); ClpX6B (10 nM, preincubated with 2 mM ATP) held by streptavidin on biotinylated BSA on DDS-Tween-20 passivated coverslips; 5 nM of ssrA (Cy3) and ssrADD (Cy5) substrates flowed in with 100 uM MTX, 2 mM ATP, 25 ug/ml BSA, Trolox and oxygen scavenger; ClpX reaction buffer (25 mM Hepes pH 7.4, 100 mM KCl, 20 mM MgCl2, 10% glycerol); 30 °C; dwell times fitted with a single exponential.

For the substance cpGFP::DHFR::polyG11::ssrA, MTX-bound, the reduction of dwell time against Ref11 amounted to 50%.
